# Source: patent US20200255836, “NUCLEIC ACID APTAMER FOR INHIBITING ACTIVITY OF GENOME-EDITING ENZYME” (NATIONAL INSTITUTE OF ADVANCED INDUSTRIAL SCIENCE AND …, published 2020)
# Experiments:
# [1] = target: T1, Cas9 (His-Cas9) (Streptococcus pyogenes, UniProt Q99ZW2 Q99ZW2:1-1368); assay: EMSA; negative control; no complex band; settings: tags: His tag, expressed in E. coli
# Protocol: (§1) The interaction between Cas9 protein and each nucleic acid aptamer having inhibitory activity was analyzed by gel shift assay. The detailed experimental conditions are as follows.
# (§2) Amounts of 2 pmol of Cas9 protein and 20 pmol of each nucleic acid aptamer (s21, s21-2, s21-mm2, tetra, and St2-1SA (aptamer against streptavidin)) were incubated at normal temperature for 30 minutes in a binding buffer (20 mM Tris/HCl pH 8.0, 250 mM NaCl, 1 mM MgCl₂, 2.5% glycerol, 0.05% Tween-20, and 0.05 mg/ml tRNA). Then, the obtained product was electrophoresed on 8% acrylamide gel, and the gel was stained with SYBR Gold (Thermo Fisher Scientific Inc.), followed by analysis with Bio-Rad ChemiDoc XRS image analysis system (Bio-Rad Laboratories, Inc.). The sequence of St2-1SA is as described below (Table 13).
# [2] = target: T1, Cas9 (His-Cas9); assay: SPR; 5'-biotin s21 immobilized; Cas9 without guide; 20 mM Tris pH 8.0, 150 mM NaCl, 1 mM MgCl2; settings: tags: His tag, expressed in E. coli; hairpin (stem-loop)
# Protocol: In order to calculate the dissociation constant (Kd) between Cas9 protein and each nucleic acid aptamer, surface plasmon resonance analysis was conducted. The detailed experimental approach was as follows.
# 5′-Biotinylated s21 was prepared and was immobilized on a streptavidin sensor chip (GE Healthcare Japan Corp.). Then, different concentrations (2.5 nM, 5 nM, 10 nM, and 20 nM) of Cas9 protein were loaded in a running buffer (20 mM Tris/HCl pH 8.0, 150 mM NaCl, 1 mM MgCl₂, and 0.005% Tween-20) to obtain sensorgrams. Kd was calculated with Biacore evaluation software package (GE Healthcare Japan Corp., Ver 2.0). Tetra was used as a control to conduct a similar test.
# [3] = target: T1, Cas9 (His-Cas9); assay: EMSA; Cas9 without guide; 250 mM NaCl, 1 mM MgCl2, tRNA; settings: tags: His tag, expressed in E. coli; hairpin, 7-base loop
# Protocol: as §1, §2
# [4] = target: T1, Cas9 (His-Cas9); assay: EMSA; no complex band; 250 mM NaCl, 1 mM MgCl2, tRNA; settings: tags: His tag, expressed in E. coli; hairpin
# Protocol: as §1, §2
# T1 sequence (Q99ZW2 whole entry, one chain of several): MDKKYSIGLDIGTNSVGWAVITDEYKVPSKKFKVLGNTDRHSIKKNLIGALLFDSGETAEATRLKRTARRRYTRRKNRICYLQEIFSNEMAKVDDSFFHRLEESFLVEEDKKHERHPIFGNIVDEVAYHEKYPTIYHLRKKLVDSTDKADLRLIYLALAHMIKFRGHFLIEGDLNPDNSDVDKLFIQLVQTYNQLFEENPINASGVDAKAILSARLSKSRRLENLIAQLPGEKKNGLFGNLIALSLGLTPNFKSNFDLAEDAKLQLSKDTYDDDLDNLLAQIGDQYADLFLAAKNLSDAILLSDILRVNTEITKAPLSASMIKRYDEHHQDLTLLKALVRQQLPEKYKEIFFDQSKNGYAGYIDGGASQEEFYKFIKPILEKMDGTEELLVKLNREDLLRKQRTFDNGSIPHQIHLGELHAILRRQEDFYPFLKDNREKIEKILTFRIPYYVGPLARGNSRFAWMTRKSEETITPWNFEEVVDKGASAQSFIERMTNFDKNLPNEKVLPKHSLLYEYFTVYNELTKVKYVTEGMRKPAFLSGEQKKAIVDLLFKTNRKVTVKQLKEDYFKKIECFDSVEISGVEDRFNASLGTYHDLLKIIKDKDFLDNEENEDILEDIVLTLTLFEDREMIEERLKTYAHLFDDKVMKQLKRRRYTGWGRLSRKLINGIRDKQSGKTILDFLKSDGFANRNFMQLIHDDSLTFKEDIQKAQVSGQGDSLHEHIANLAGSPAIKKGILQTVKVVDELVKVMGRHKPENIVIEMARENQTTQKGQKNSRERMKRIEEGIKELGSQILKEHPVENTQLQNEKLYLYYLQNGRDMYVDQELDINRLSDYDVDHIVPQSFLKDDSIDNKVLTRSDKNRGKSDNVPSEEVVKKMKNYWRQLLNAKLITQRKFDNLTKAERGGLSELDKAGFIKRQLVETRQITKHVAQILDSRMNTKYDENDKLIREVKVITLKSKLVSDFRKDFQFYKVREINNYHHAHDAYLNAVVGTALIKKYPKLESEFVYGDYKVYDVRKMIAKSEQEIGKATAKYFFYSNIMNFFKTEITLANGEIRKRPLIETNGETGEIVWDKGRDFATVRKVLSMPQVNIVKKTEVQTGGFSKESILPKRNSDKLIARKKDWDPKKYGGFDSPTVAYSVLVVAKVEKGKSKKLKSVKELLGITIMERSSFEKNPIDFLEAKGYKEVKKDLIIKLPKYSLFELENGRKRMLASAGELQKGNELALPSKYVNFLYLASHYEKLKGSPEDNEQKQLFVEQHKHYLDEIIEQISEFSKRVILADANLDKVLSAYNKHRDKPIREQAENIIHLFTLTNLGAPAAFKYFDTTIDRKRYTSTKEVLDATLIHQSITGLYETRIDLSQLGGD
binder,measurement,setting,value
ATTGACCGCTGTGTGACGCAACACTCAAT (ssDNA) [St2-1SA (streptavidin aptamer)],binding result,[1],no binding
GAGGCTCTCACATCGCGCCTTTCCCCAGCTTTCGGTGTGAGAGCCTC (ssDNA) [s21],Kd,[2],570 pM
GAGGCTCTCACATCGCGCCTTTCGGTGTGAGAGCCTC (ssDNA) [s21-2],binding result,[3],binds
GAGGCTCTCACAGCGCGCCTTTCGTTGTGAGAGCCTC (ssDNA) [s21-2mm2],binding result,[4],no binding
